Our source for the Kd, koff and kon values is patent US20190055314A1 (ADAGENE, published 2019).

Assay [1] addresses T1, human CD137-His6 (Sino Biological #10041-H08H) (human, UniProt Q07011 24-186).
T1 construct: Bought; also called human CD137 protein; not shown: His6 tag
Put plainly: SPR Biacore, IgG. Background: SPR reads the build-up and loss of mass on a sensor chip optically.

Assay [2] deals with T2, CD137-hisFc fusion protein (Sino Biological Cat 10041-H03H) (human, UniProt Q07011 24-186).
T2 construct: Bought; also called recombinant human CD137 (fused with human Fc and His tag); not shown: His tag and human Fc
Nature of the assay: BLI Octet, Fab. For orientation: BLI is a label-free optical method that tracks binding on a fibre tip over time.

The target in assay [3] is T2, CD137-hisFc fusion protein (Sino …). Nature of the assay: BLI Octet, Fab. This is another data set of the same source.

Like-named read-outs stand apart in the source and are kept apart here.

B1: AG10086 (antibody, human IgG4 S228P, kappa, V domains shown)
VH: EVQLVESGGGLVQPGGSLRLSCAASGYSISSGHHWAWIRQAPGKGLEWVSVISGSGSSTYYADSVKGRFTISRDNSKNTLYLQLNSLRAEDTAVYYCAREGSDTVLGDWFAYWGQGTLVTVSS
VL: DIQLTQSPSSLSASVGDRVTITCRASQGISSYLAWYQQKPGKAPKLLIYDASNLETGVPSRFSGSGSGTDFTLTISSLQPEDFATYYCQQGYSTWTFGQGTKVEIKR
notes: also called IgG of Fab 5409
In general, Kd refers to the concentration at which binding is half-saturated. Low values mean tighter binding, high ones weaker binding. The koff is the first-order rate constant of dissociation. A high value points to a short-lived complex. By kon is commonly meant the second-order rate constant of association. A lower kon goes with slow association. Take B1: in assay [1], the Kd was 46 nM, the koff was found to be 0.0045 s⁻¹ and the on-rate (kon) is 100000 M⁻¹ s⁻¹.

B2: AG10079 (antibody, human IgG4 S228P, kappa, V domains shown)
VH: EVQLVESGGGLVQPGGSLRLSCAASGFSLSTGGVGVSWIRQAPGKGLEWVSSISGSGGTTYYADSVKGRFTISRDNSKNTLYLQLNSLRAEDTAVYYCARDDLYSWYFDVWGQGTLVTVSS
VL: DIQLTQSPSSLSASVGDRVTITCRASQGIGSSLAWYQQKPGKAPKLLIYAASSLQSGVPSRFSGSGSGTDFTLTISSLQPEDFATYYCQQGYYTWTFGQGTKVEIKR
notes: also called IgG of Fab 4074
In the case of B2, in assay [1], the Kd was determined as 1.4 nM, the koff was determined as 0.00027 s⁻¹ and the kon amounted to 190000 M⁻¹ s⁻¹.

B3: AG10060 (antibody, human IgG4 S228P, kappa, V domains shown)
VH: EVQLVESGGGLVQPGGSLRLSCAASGFSLSTSGVGVGWIRQAPGKGLEWLALIDWADDKYYSPSLKSRLTISRDNSKNTLYLQLNSLRAEDTAVYYCARGGSDAVLGDWFAYWGQGTLVTVSS
VL: DIQLTQSPSSLSASVGDRVTITCRASQGIGSYLAWYQQKPGKAPKLLIYDASNLETGVPSRFSGSGSGTDFTLTISSLQPEDFATYYCQQGYSIWTFGQGTKVEIKR
notes: also called IgG of Fab 5359
B3: in assay [1], the affinity, expressed as Kd, was 1.1 nM; the koff is 0.00025 s⁻¹; the kon amounted to 220000 M⁻¹ s⁻¹.

B4: AG10063 (antibody, human IgG4 S228P, kappa, V domains shown)
VH: EVQLVESGGGLVQPGGSLRLSCAASGFSLSTGGVAVGWIRQAPGKGLEWLALIDWDGDKSYSTSLKSRLTISRDNSKNTLYLQLNSLRAEDTAVYYCAREGSTAVVGDWFDYWGQGTLVTVSS
VL: DIQLTQSPSSLSASVGDRVTITCRASQGISRYLAWYQQKPGKAPKLLIYDASNRATGIPSRFSGSGSGTDFTLTISSLQPEDFATYYCQQGYSLWTFGQGTKVEIKR
notes: also called IgG of Fab 5413
In assay [1], B4 displayed a Kd of 0.99 nM, a koff of 0.00039 s⁻¹ and a kon of 390000 M⁻¹ s⁻¹.

B5: AG10132 (antibody, human IgG4 S228P, kappa, V domains shown)
VH: EVQLVESGGGLVQPGGSLRLSCAASGYSITSGYHWSWIRQAPGKGLEWVSSISGYGDTTYYADSVKGRFTISRDNSKNTLYLQLNSLRAEDTAVYYCAREGSDTVLGDWFAYWGQGTLVTVSS
VL: DIQLTQSPSSLSASVGDRVTITCQASQDIRTYLAWYQQKPGKAPKLLIYDASNLETGVPSRFSGSGSGTDFTLTISSLQPEDFATYYCQQGYSIWTFGQGTKVEIKR
notes: also called IgG of Fab 5408
B5: in assay [1], the Kd came out at 69 nM, the koff turned out to be 0.014 s⁻¹ and the kon was 200000 M⁻¹ s⁻¹.

B6: AG10126 (antibody, human IgG4 S228P, kappa, V domains shown)
VH: EVQLVESGGGLVQPGGSLRLSCAASGYSISSGYHWAWIRQAPGKGLEWVSSISGDGSSTYYADSVKGRFTISRDNSKNTLYLQLNSLRAEDTAVYYCAREGSDAVTGDWFAYWGQGTLVTVSS
VL: DIQLTQSPSSLSASVGDRVTITCRASQGVGTYLAWYQQKPGKAPKLLIYDASSLESGVPSRFSGSGSGTDFTLTISSLQPEDFATYYCQQGYSLWTFGQGTKVEIKR
notes: also called IgG of Fab 5316
In assay [1], B6 showed a Kd of 14 nM.

B7: AG10061 (antibody, human IgG4 S228P, kappa, V domains shown)
VH: EVQLVESGGGLVQPGGSLRLSCAASGFSLSTSGVAVAWIRQAPGKGLEWLALIDWDDDKRYSTSLKSRLTISRDNSKNTLYLQLNSLRAEDTAVYYCAREGSTTVVGDWFDYWGQGTLVTVSS
VL: DIQLTQSPSSLSASVGDRVTITCRASQGIGTYLAWYQQKPGKAPKLLIYDASNRATGIPSRFSGSGSGTDFTLTISSLQPEDFATYYCQQGYSLWTFGQGTKVEIKR
In assay [1], B7 returned a Kd of 3.6 nM, a koff of 0.00078 s⁻¹ and a kon of 220000 M⁻¹ s⁻¹.

B8: AG10057 (antibody, human IgG4 S228P, kappa, V domains shown)
VH: EVQLVESGGGLVQPGGSLRLSCAASGFSLSTSGVAVGWIRQAPGKGLEWLALIDWADDKYYSPSLKSRLTISRDNSKNTLYLQLNSLRAEDTAVYYCAREGSDAVLGDWFAYWGQGTLVTVSS
VL: DIQLTQSPSSLSASVGDRVTITCRASQDISTFLAWYQQKPGKAPKLLIYDASSLESGVPSRFSGSGSGTDFTLTISSLQPEDFATYYCQQAYSIWTFGQGTKVEIKR
notes: also called IgG of Fab 5303
In assay [1], B8 yielded a dissociation constant (Kd) of 7.9 nM, an off-rate constant (koff) of 0.0061 s⁻¹ and an on-rate constant (kon) of 770000 M⁻¹ s⁻¹.

B9: AG10127 (antibody, human IgG4 S228P, kappa, V domains shown)
VH: EVQLVESGGGLVQPGGSLRLSCAASGFSLSTSGVAVGWIRQAPGKGLEWLALIDWDDDKYYSTSLKSRLTISRDNSKNTLYLQLNSLRAEDTAVYYCAREGSTAVAGDWFAYWGQGTLVTVSS
VL: DIQLTQSPSSLSASVGDRVTITCQASQDIRTFLAWYQQKPGKAPKLLIYDASNRATGIPSRFSGSGSGTDFTLTISSLQPEDFATYYCQQGYSTWTFGQGTKVEIKR
notes: also called IgG of Fab 5318
Take B9: in assay [1], the Kd came to 9.6 nM, the koff was 0.0029 s⁻¹ and the kon came to 300000 M⁻¹ s⁻¹.

B10: AG10125 (antibody, human IgG4 S228P, kappa, V domains shown)
VH: EVQLVESGGGLVQPGGSLRLSCAASGFSLSTGGVAVGWIRQAPGKGLEWLALIDWAGDKSYSTSLKSRLTISRDNSKNTLYLQLNSLRAEDTAVYYCARGGSDTVLGDWFAYWGQGTLVTVSS
VL: DIQLTQSPSSLSASVGDRVTITCRASQGVSPYLAWYQQKPGKAPKLLIYDASNRATGIPSRFSGSGSGTDFTLTISSLQPEDFATYYCQQGYSTWTFGQGTKVEIKR
notes: also called IgG of Fab 5314
As to B10, in assay [1], binding was characterised by a dissociation constant (Kd) of 15 nM, the koff was 0.0017 s⁻¹ and the kon is 110000 M⁻¹ s⁻¹.

B11: AG10128 (antibody, human IgG4 S228P, kappa, V domains shown)
VH: EVQLVESGGGLVQPGGSLRLSCAASGFSLSTGGVAVGWIRQAPGKGLEWLALIDWAGDKSYSTSLKSRLTISRDNSKNTLYLQLNSLRAEDTAVYYCAREGEDAVTGDWFAYWGQGTLVTVSS
VL: DIQLTQSPSSLSASVGDRVTITCQASQDIRTYLAWYQQKPGKAPKLLIYDASNRATGIPSRFSGSGSGTDFTLTISSLQPEDFATYYCQQGYSIWTFGQGTKVEIKR
notes: also called IgG of Fab 5342
In assay [1], B11 displayed a Kd of 3 nM, a koff of 0.00037 s⁻¹ and a kon of 120000 M⁻¹ s⁻¹.

B12: AG10084 (antibody, human IgG4 S228P, kappa, V domains shown)
VH: EVQLVESGGGLVQPGGSLRLSCAASGYSITSGHYWNWIRQAPGKGLEWVSGISGDGSSTYYADSVKGRFTISRDNSKNTLYLQLNSLRAEDTAVYYCARGGSDAVLGDWFAYWGQGTLVTVSS
VL: DIQLTQSPSSLSASVGDRVTITCRASQSISSYLAWYQQKPGKAPKLLIYDASNLETGVPSRFSGSGSGTDFTLTISSLQPEDFATYYCQQGYSTWTFGQGTKVEIKR
As to B12, in assay [1], the Kd was 43 nM, the koff is 0.0028 s⁻¹ and the kon is 66000 M⁻¹ s⁻¹.

B13: Fab 5353 (Fab, V domains shown)
VH: EVQLVESGGGLVQPGGSLRLSCAASGFTFSSYWIHWVRQAPGKGLEWVSVISGDGDTTYYADSVKGRFTISRDNSKNTLYLQLNSLRAEDTAVYYCARSRGLVLDAFDYWGQGTLVTVSS
VL: DIQLTQSPSSLSASVGDRVTITCRASQSVSGRFLAWYQQKPGKAPKLLIYDASSLESGVPSRFSGSGSGTDFTLTISSLQPEDFATYYCQQYDYWPPYTFGQGTKVEIKR
notes: Fab from E. coli; also called VH26/VL26
In assay [2], B13 gave a dissociation constant Kd of 16.1 nM, a koff of 0.00597 s⁻¹ and an on-rate constant (kon) of 370000 M⁻¹ s⁻¹. Moreover, in assay [3], the dissociation constant Kd worked out at 16 nM, the koff amounted to 0.006 s⁻¹ and the kon amounted to 370000 M⁻¹ s⁻¹.

B14: AG10062 (antibody, human IgG4 S228P, kappa, V domains shown)
VH: EVQLVESGGGLVQPGGSLRLSCAASGYSISSGYHWAWIRQAPGKGLEWIGEIYHSGSTYYSPSLKSRVTISRDNSKNTLYLQLNSLRAEDTAVYYCARSPYYYGVFDYWGQGTLVTVSS
VL: DIQLTQSPSSLSASVGDRVTITCSASSRVGSVYWYQQKPGKAPKLLIYDASNLETGVPSRFSGSGSGTDFTLTISSLQPEDFATYYCQQYTHDPVTFGQGTKVEIKR
notes: also called IgG of Fab 5404
B14: in assay [1], the Kd was found to be 5.9 nM, the koff is 0.00094 s⁻¹ and the kon is 160000 M⁻¹ s⁻¹.

B15: AG10054 (antibody, human IgG4 S228P, kappa, V domains shown)
VH: EVQLVESGGGLVQPGGSLRLSCAASGFSLSTSGVAVSWIRQAPGKGLEWIGIINPNFGDTNYAQKFQGRVTISRDNSKNTLYLQLNSLRAEDTAVYYCARDEYYGGSYYFDYWGQGTLVTVSS
VL: DIQLTQSPSSLSASVGDRVTITCRASQDVRTAVAWYQQKPGKAPKLLIYDASNLETGVPSRFSGSGSGTDFTLTISSLQPEDFATYYCQQSYDWPPTFGQGTKVEIKR
notes: also called IgG of Fab 4072
For B15, in assay [1], the Kd turned out to be 13 nM, the koff is 0.0019 s⁻¹ and the kon came out at 140000 M⁻¹ s⁻¹.

B16: AG10080 (antibody, human IgG4 S228P, kappa, V domains shown)
VH: EVQLVESGGGLVQPGGSLRLSCAASGYSISSGYYWDWIRQAPGKGLEWVSSISGDGDTTYYADSVKGRFTISRDNSKNTLYLQLNSLRAEDTAVYYCAREYYGYGYALDYWGQGTLVTVSS
VL: DIQLTQSPSSLSASVGDRVTITCRASQGISSYLAWYQQKPGKAPKLLIYDASSLESGVPSRFSGSGSGTDFTLTISSLQPEDFATYYCQQYYSTPLTFGQGTKVEIKR
notes: also called IgG of Fab 4217
Turning to B16, in assay [1], the Kd was 10 nM, the dissociation rate constant (koff) was 0.012 s⁻¹ and the kon was 1.2e+06 M⁻¹ s⁻¹.

B17: AG10081 (antibody, human IgG4 S228P, kappa, V domains shown)
VH: EVQLVESGGGLVQPGGSLRLSCAASGYSISSGHYWGWIRQAPGKGLEWLALIDWYGDKYYSTSLKSRLTISRDNSKNTLYLQLNSLRAEDTAVYYCARSDYYGSHFDYWGQGTLVTVSS
VL: DIQLTQSPSSLSASVGDRVTITCRASESVDFDGFSFLAWYQQKPGKAPKLLIYDASNLETGVPSRFSGSGSGTDFTLTISSLQPEDFATYYCQQYDTLPRTFGQGTKVEIKR
notes: also called IgG of Fab 5299
In assay [1], B17 came in with a Kd of 6.9 nM, a koff of 0.0017 s⁻¹ and a kon of 240000 M⁻¹ s⁻¹.
